Experimental data published in patent US20160185850A1 (ESBATECH AN ALCON BIOMEDICAL RESEARCH UNIT, published 2016).
Positions count from the first letter of the chain named. Names may count otherwise.

B1: TB-A H_F68L (scFv)
scFv: DIVMTQSPSSLSASVGDRVTLTCTASQSVSNDVVWYQQRPGKAPKLLIYSAFNRYTGVPSRFSGRGYGTDFTLTISSLQPEDVAVYYCQQDYNSPRTFGQGTKLEVKRGGGGSGGGGSGGGGSGGGGSQVQLVQSGAEVKKPGASVKVSCTASGYTFTHYGMNWVRQAPGKGLEWMGWINTYTGEPTYADKFKDRLTFSLETSASTVYMELTSLTSDDTAVYYCARERGDAMDYWGQGTLVTVSS
B2: TB-A H_F68V/F70L (scFv)
scFv: B1 scFv with L196V, F198L
B3: TB-A H_M48L/F68I (scFv)
scFv: B1 scFv with M176L, L196I
B4: TB-A H_F70L/L72R (scFv)
scFv: B1 scFv with L196F, F198L, L200R
notes: also called TB-A H70/72
B5: TB-A H_F68A (scFv)
scFv: B1 scFv with L196A
B6: TB-A H_K43R/F68I (scFv)
scFv: B1 scFv with K171R, L196I
B7: TB-A Linker_G2R H_F68L (scFv)
scFv: B1 scFv with G110R
B8: TB-A H_F70L (scFv)
scFv: B1 scFv with L196F, F198L
B9: TB-B L46 (scFv)
scFv: DIVLTQSPSSLSASVGDRVTLTCTASQSVSNDVVWYQQRPGKAPKLLIYSAFNRYTGVPSRFSGSGSGTEFTLTISSLQPEDVAVYYCQQDYNSPRTFGQGTKLEVKRGGGGSGGGGSGGGGSGGGGSQVQLVQSGAEVKKPGASVKVSCTASGYSFTHYGMNWVRQAPGQGLEWMGWINTYTGEPTYADKFKDRVTLTRDTSIGTVYMELTSLTSDDTAVYYCARERGDAMDYWGQGTLVTVSS
notes: Differs from TB-B only at position 46 of VL (R to L); also called TB-B R46L

Key:
recombinant human TNFα [1] = target: T1, recombinant human TNFα (human, UniProt P01375 77-233); experiment: cell-based or functional assay
T1 sequence (P01375 77-233 limits assumed): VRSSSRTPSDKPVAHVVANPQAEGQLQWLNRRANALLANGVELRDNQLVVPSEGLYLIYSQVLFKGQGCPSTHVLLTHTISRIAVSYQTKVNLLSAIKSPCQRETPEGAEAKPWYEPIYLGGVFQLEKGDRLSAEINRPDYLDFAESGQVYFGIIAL

recombinant human TNFα [2] = target: T1, recombinant human TNFα; experiment: ELISA on recombinant human TNFα
recombinant human TNFα [3] = target: T1, recombinant human TNFα; experiment: ELISA on recombinant human TNFα (FIG. 4A)

| Binder | Relative potency: EC50X/EC50TB-A, KYM-1 cells (recombinant human TNFα [1]) [ratio EC50X/EC50TB-A] | Relative potency: EC50X/EC50TB-A, L929 cells (recombinant human TNFα [1]) [ratio EC50X/EC50TB-A] | binding result (recombinant human TNFα [2]) | Kd (recombinant human TNFα [3]) [nM] |
| --- | --- | --- | --- | --- |
| B1 | 1.5 | 1.32 | – | – |
| B2 | – | 1.28 | – | – |
| B3 | 1.6 | 1.1 | – | – |
| B4 | – | – | binds | – |
| B5 | – | 1.14 | – | – |
| B6 | 1.5 | 1.37 | – | – |
| B7 | 1.3 | 0.8 | – | – |
| B8 | – | 2.7 | – | – |
| B9 | – | – | – | ~100 |
